Data reported in US6261760A, “Regulation of the cell cycle by sterols” (priority 1999, dated 2001).

Test system: LDL FC uptake by fibroblast monolayers
Test: Effects of metabolic inhibitors on uptake of 3H-cholesterol from LDL (Example 1)
Conditions: cells pretreated with proteinase K; 4 experiments

B1: proteinase K: proteinase K pretreatment of cells (protein, UniProt P06873 106-384, looked up)
Proteinase K: AAQTNAPWGLARISSTSPGTSTYYYDESAGQGSCVYVIDTGIEASHPEFEGRAQMVKTYYYSSRDGNGHGTHCAGTVGSRTYGVAKKTQLFGVKVLDDNGSGQYSTIIAGMDFVASDKNNRNCPKGVVASLSLGGGYSSSVNSAAARLQSSGVMVAVAAGNNNADARNYSPASEPSVCTVGASDRYDRRSSFSNYGSVLDIFGPGTSILSTWIGGSTRSISGTSMATPHVAGLAAYLMTLGKTTAASACRYIADTANKGDLSNIPFGTVNLLAYNNYQA
- inhibition of uptake of 3H-FC LDL label: 7±6%
